Broadly, the EC50 is the concentration giving half of the maximal effect. A low value points to greater potency.

Experiment [1] has as its target T1, human LAMP1 at the cell surface (human, UniProt P11279 29-417).
T1 construct: native on tumour cells (PDX, Colo205, SW480, LS174T) or from the cloned CDS NM_005561.3 in HEK293 and HCT116; signal peptide 1-28 left out; also called huLAMP1; full length human LAMP1
T1 sequence: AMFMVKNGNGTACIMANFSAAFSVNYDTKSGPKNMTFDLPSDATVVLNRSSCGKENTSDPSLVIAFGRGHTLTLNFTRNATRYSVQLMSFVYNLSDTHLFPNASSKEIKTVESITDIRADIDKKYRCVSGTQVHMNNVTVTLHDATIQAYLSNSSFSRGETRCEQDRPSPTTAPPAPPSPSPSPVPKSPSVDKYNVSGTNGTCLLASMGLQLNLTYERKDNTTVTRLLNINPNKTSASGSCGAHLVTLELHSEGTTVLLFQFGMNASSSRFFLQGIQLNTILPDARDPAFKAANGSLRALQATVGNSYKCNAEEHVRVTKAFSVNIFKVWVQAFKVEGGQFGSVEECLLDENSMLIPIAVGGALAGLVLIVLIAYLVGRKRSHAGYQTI
Nature of the experiment: flow cytometry, HCT116 huLAMP1 clone 8. How it is done:
HCT116 cells were infected by a lentiviral vector allowing stable integration of the human or the cynomolgus LAMP1 CDS in genomic DNA of cells. Individual clones with different densities of human or cynomolgus LAMP1 cell surface localization were derived from a pool of HCT116 infected cells. […] 100 μL/well of goat anti-human IgG conjugated with Alexa488 (Invitrogen; # A11013) was added for 1 h at 4° C. and washed two times with PBS 1% BSA. The antibody binding was evaluated after centrifugation and resuspension of cells in 100 μl fixing solution (paraformaldehyde at 4% in PBS). Samples were read using Galaxy® Flow Cytometry System (Partec). EC50 values were estimated using BIOST@T-SPEED software.
(A flow cytometer gives signals particle by particle.)

Experiment [2] has as its target T2, LAMP1_hL1_mL2_hL34_ΔGYQTI (human; mouse, UniProt P11279 29-412).
T2 construct: on cells; also called pXL5997
T2 chain: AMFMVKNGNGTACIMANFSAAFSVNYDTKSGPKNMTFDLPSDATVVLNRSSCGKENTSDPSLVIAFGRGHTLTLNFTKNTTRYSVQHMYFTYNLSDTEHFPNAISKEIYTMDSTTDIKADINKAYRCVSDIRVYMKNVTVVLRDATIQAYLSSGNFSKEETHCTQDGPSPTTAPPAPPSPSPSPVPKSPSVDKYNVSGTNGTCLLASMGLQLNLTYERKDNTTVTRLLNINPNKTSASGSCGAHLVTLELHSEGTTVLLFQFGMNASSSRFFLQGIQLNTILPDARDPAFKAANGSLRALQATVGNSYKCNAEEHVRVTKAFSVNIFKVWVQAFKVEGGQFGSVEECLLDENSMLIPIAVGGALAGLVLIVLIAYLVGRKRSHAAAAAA
Put plainly: flow cytometry, transfected 293-F cells.

For experiment [3], the target named is T3, LAMP1_mseq6_ΔGYQTI (human; mouse, UniProt P11279 29-412).
T3 construct: on cells; also called pXL5990
T3 chain: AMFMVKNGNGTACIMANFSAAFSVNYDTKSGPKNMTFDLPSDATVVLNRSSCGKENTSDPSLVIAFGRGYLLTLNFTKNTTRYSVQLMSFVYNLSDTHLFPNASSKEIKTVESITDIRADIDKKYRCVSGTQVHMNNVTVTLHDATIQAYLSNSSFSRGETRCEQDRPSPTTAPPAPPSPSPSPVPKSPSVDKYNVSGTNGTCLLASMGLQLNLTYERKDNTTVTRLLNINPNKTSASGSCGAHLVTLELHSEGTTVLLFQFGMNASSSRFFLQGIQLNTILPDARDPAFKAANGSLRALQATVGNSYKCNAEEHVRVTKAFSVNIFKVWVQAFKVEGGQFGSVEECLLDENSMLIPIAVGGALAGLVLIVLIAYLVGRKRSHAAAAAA
Put plainly: flow cytometry, transfected 293-F cells.

Experiment [4] concerns the target T4, hLAMP1_ΔGYQTI (human, UniProt P11279 29-412).
T4 construct: also called pXL5626
T4 sequence: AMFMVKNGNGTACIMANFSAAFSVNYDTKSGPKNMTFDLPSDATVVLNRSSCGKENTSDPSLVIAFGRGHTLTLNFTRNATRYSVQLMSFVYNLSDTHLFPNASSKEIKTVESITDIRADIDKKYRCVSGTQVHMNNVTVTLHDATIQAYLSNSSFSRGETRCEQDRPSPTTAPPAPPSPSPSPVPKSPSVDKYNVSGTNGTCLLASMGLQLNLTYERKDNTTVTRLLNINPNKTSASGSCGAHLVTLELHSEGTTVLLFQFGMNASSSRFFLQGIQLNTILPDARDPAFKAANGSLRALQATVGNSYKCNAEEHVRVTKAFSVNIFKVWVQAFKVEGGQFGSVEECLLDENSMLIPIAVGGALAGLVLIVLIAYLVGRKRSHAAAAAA
Put plainly: flow cytometry, transfected 293-F cells.

B1: huMAb1_1 (antibody, human IgG1, kappa)
heavy: not shown
light: DIQMTQSPSSLSASVGDRVTITCKASQDIDRYMAWYQDKPGKAPRLLIHDTSTLQSGVPSRFSGSGSGRDYTLTISNLEPEDFATYYCLQYDNLWTFGGGTKVEIKRTVAAPSVFIFPPSDEQLKSGTASVVCLLNNFYPREAKVQWKVDNALQSGNSQESVTEQDSKDSTYSLSSTLTLSKADYEKHKVYACEVTHQGLSSPVTKSFNRGEC
notes: humanized, VH1-huIgG1 and VL1-huCk
Regarding B1, the half-maximal effective concentration (EC50) in experiment [1] was found to be 0.015 µM. The binding result in experiment [2] and in experiment [3] was “no binding” in each case. In experiment [4], the mean fluorescence amounted to 864.
